Results reported in patent publication US20230357838.

Assays:
[1] = tested on: T1, RaDa01 (Ruminococcus sp.)
T1 sequence: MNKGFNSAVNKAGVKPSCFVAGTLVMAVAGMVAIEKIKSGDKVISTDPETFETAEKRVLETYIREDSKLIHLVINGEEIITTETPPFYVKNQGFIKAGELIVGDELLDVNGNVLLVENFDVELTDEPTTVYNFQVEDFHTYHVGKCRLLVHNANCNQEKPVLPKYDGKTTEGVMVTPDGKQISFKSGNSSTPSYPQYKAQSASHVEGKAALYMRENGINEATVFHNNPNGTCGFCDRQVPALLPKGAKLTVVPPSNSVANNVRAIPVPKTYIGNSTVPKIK

APOBEC3A = APOBEC3A (UniProt P31941); conditions: ssDNA deaminase control
MGYPDa20 (unidentified) = tested on: T2, MGYPDa20 (unidentified); conditions: 5mC 0.049, 5hmC 0.021
T2 sequence: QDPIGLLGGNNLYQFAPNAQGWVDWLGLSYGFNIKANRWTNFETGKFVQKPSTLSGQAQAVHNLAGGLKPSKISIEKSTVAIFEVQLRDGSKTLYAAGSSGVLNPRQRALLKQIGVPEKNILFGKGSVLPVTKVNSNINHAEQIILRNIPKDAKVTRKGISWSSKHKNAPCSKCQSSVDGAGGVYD

[2] = tested on: T3, BcDa02 (Burkholderia cepacia)
T3 sequence: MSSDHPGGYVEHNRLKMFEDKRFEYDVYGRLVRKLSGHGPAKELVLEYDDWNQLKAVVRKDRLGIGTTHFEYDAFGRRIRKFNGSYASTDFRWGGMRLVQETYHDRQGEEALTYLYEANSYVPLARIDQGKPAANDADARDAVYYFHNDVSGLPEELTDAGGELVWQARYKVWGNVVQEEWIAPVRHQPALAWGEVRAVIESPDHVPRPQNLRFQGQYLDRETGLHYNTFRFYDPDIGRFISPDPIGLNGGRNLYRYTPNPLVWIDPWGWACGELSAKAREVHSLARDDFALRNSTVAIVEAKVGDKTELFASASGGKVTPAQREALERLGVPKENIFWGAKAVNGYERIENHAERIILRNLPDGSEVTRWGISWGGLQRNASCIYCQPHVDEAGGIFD

AcDa01 = conditions: CG 0.790, CH 0.014
[3] = tested on: T4, CsDa01 (Chitinophaga silvisoli)
T4 sequence: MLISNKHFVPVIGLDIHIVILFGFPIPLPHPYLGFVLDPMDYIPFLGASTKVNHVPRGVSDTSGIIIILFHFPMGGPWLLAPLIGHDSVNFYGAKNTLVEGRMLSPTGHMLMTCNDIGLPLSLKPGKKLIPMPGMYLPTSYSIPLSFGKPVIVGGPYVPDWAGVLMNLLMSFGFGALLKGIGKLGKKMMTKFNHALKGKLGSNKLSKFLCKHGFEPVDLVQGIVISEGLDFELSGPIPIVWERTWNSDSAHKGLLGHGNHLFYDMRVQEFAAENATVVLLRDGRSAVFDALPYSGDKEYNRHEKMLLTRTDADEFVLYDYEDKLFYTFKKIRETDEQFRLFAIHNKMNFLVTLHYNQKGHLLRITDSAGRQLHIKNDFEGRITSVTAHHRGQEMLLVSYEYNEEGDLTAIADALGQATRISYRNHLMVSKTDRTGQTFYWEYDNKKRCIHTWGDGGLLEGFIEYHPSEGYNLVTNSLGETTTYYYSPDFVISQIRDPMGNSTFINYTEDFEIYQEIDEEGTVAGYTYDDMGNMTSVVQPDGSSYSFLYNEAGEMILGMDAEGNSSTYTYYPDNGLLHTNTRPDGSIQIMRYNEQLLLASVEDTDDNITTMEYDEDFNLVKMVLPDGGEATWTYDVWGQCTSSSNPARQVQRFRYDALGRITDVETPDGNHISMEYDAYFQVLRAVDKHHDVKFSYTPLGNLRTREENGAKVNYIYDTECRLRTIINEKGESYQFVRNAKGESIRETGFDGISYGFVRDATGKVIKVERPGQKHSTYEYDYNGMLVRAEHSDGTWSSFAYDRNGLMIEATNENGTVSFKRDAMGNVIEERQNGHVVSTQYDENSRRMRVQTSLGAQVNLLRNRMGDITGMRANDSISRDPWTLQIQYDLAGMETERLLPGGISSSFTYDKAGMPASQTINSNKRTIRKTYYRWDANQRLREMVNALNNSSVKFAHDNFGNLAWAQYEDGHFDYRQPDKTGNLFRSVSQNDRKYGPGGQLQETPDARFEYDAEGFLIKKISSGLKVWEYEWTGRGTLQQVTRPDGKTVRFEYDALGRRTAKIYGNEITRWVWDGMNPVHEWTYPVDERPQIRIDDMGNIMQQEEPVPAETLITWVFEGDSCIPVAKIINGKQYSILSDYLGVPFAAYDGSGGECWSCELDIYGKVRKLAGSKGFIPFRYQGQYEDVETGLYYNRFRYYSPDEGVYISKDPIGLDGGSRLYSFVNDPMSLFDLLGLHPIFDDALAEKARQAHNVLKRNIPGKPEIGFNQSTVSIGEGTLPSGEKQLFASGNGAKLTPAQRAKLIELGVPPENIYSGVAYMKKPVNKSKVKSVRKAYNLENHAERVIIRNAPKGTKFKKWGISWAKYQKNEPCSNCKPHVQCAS

LbsDa01 (Simiaoa sunii) = tested on: T5, LbsDa01 (Simiaoa sunii)
T5 sequence: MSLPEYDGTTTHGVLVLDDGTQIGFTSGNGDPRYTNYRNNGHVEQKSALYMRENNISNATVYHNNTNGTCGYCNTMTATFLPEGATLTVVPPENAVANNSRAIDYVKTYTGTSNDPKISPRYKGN

chimera_10 = tested on: T6, chimera_10
T6 sequence: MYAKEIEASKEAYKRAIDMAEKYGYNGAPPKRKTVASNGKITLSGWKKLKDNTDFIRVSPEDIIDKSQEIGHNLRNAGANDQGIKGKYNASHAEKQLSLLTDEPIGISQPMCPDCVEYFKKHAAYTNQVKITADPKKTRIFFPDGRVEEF

MGYPDa829 = tested on: T7, MGYPDa829
T7 sequence: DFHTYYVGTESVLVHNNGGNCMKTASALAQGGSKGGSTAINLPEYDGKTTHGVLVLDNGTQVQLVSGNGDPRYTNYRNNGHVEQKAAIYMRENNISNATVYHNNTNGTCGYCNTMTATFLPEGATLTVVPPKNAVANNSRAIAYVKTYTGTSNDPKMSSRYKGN

Chain of APOBEC3A (P31941 other isoform, or with tags, fused parts or gaps): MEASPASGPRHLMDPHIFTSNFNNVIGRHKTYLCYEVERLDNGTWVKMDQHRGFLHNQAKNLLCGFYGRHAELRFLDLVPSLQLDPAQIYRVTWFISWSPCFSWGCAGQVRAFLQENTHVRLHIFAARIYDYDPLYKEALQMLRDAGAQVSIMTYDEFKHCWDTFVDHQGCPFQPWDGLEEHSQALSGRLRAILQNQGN

For “unmodified dsDNA (E. coli C2566 genomic)”, the activity (fraction deaminated) [1] was 0.465, the activity (fraction deaminated) (APOBEC3A) was 0.331 and the activity (fraction deaminated) (MGYPDa20 (unidentified)) was 0.857. For the same substance, the activity (fraction deaminated) [2] was 0.772, the activity (fraction deaminated) (d22_Cd4_PeDa01) was 0.641 and the activity (fraction deaminated) (AcDa01) was 0.243. The activity (fraction deaminated) [3] was 0.913, the activity (fraction deaminated) (LbsDa01 (Simiaoa sunii)) was 0.889 and the activity (fraction deaminated) (chimera_10) was 0.95. The activity (fraction deaminated) (MGYPDa829) was 0.956.
